Measured values taken from patent US20060024314A1, “Antibodies and cyclic peptides which bind CEA (carcinoembryonic antigens) and their use as cancer therapeutics” (priority 1998, published 2006).
Each block holds one molecule with its values, some of them ahead of it. Bridge positions count the residues as written; N and C are the ends.

Key:
[1] = biological target: CEA double mutant Q44R+I46V (human) (UniProt P06731); test: cell-based or functional assay
CEA mutant Q80R (human) = CEA mutant Q80R (human) (UniProt P06731); test: cell-based or functional assay
CEA mutant D82N (human) = CEA mutant D82N (human) (UniProt P06731); test: cell-based or functional assay
[2] = test system: CEA-mediated intercellular adhesion; settings: from references (29) and (16); cited from earlier work
[3] = biological target: T1, human carcinoembryonic antigen (CEA), wild type (human, UniProt P06731 35-685, GPI membrane anchor); test: cell-based or functional assay
T1 sequence (looked up): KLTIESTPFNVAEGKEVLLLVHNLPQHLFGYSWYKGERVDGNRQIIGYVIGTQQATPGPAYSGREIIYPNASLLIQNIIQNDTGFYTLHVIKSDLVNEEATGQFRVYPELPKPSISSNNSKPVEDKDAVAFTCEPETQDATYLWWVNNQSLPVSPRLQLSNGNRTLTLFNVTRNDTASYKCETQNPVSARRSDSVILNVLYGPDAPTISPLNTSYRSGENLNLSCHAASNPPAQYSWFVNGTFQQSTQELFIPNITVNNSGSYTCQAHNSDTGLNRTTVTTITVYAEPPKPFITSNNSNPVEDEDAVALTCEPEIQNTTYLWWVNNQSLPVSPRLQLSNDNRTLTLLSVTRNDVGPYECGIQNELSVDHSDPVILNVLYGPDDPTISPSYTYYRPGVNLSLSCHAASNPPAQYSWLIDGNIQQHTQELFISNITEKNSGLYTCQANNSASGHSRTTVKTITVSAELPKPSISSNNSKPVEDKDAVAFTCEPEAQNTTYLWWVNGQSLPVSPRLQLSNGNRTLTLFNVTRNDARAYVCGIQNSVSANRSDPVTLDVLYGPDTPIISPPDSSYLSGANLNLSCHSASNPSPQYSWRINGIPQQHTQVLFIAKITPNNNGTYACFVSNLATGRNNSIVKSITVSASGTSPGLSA

degree of differentiation of L6 transfectants (CEA mutant Q80R (human)): 81%
Molecule: CEA mutant Q80R (from UniProt P06731 35-702)

% fusion of L6(CEA) cells (release of the myogenic differentiation block), peptide at 100 µM [3]: 18%
B1: cyclized peptide H-CGYSWYKC-OH (subdomain 1) (peptide)
peptide: H-CGYSWYKC-OH
modifications: disulfide 1-8
SMILES: NCCCC[C@@H]1NC(=O)[C@H](Cc2ccc(O)cc2)NC(=O)[C@H](Cc2c[nH]c3ccccc23)NC(=O)[C@H](CO)NC(=O)[C@H](Cc2ccc(O)cc2)NC(=O)CNC(=O)[C@@H](N)CSSC[C@@H](C(=O)O)NC1=O

% fusion of L6(CEA) cells (release of the myogenic differentiation block), peptide at 100 µM [3]: 36%
B2: cyclized peptide H-CQNDTGC-OH (subdomain 3) (peptide)
peptide: H-CQNDTGC-OH
modifications: disulfide 1-7
SMILES: C[C@@H](O)[C@@H]1NC(=O)[C@H](CC(=O)O)NC(=O)[C@H](CC(N)=O)NC(=O)[C@H](CCC(N)=O)NC(=O)[C@@H](N)CSSC[C@@H](C(=O)O)NC(=O)CNC1=O

% fusion of L6(CEA) cells (release of the myogenic differentiation block), peptide at 100 µM [3]: 28%
B3: cyclized peptide H-CGNRQIIC-OH (subdomain 2) (peptide)
peptide: H-CGNRQIIC-OH
modifications: disulfide 1-8
SMILES: CC[C@H](C)[C@@H]1NC(=O)[C@H](CCC(N)=O)NC(=O)[C@H](CCCNC(=N)N)NC(=O)[C@H](CC(N)=O)NC(=O)CNC(=O)[C@@H](N)CSSC[C@@H](C(=O)O)NC(=O)[C@H]([C@@H](C)CC)NC1=O

Second part, the molecule before the results:

Molecule: CEA double mutant Q44R+I46V (from UniProt P06731 35-702)
degree of differentiation of L6 transfectants [1]: 100%

Molecule: CEA mutant D82N (from UniProt P06731 35-702)
degree of differentiation of L6 transfectants (CEA mutant D82N (human)): 100%

Molecule: H-CQNDTGC-OH (disulfide 1-7; SMILES C[C@@H](O)[C@@H]1NC(=O)[C@H](CC(=O)O)NC(=O)[C@H](CC(N)=O)NC(=O)[C@H](CCC(N)=O)NC(=O)[C@@H](N)CSSC[C@@H](C(=O)O)NC(=O)CNC1=O) [cyclized peptide QNDTG, cyclized peptide representing subdomain 3 of the CEA N domain]
inhibition of CEA-mediated intercellular adhesion [2]: effective in inhibiting CEA-mediated intercellular adhesion
